US20240010754A1 (JIANGSU HENGRUI MEDICINE, published 2024)
Residue numbers refer to the chain shown, from its start. Names may count otherwise.

T1: human FAP (human, UniProt Q12884 1-760)
T1 construct: whole, on cells; also called CHO/FAP; Flp-In CHO/FAP
T1 sequence (looked up): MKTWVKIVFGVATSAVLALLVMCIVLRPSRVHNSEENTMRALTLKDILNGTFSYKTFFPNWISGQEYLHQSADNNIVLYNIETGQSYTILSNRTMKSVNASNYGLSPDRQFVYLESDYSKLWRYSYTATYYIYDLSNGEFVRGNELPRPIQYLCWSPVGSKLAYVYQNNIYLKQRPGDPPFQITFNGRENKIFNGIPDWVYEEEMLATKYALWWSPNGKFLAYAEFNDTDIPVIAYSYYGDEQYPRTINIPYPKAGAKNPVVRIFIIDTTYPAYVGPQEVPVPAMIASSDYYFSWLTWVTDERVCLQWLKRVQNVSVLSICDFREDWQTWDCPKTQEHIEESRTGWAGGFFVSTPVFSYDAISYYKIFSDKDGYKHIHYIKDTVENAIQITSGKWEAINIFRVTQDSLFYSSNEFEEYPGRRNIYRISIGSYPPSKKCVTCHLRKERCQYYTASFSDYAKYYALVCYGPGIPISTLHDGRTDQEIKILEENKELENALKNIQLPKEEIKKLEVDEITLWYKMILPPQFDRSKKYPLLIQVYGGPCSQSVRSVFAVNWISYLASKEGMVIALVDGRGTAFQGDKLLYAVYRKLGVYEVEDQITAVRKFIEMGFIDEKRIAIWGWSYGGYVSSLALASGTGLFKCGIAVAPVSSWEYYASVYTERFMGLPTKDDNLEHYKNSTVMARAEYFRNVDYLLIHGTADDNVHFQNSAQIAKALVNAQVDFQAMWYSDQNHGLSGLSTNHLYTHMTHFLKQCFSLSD

B1: TJ030-PR1102 (bispecific antibody, human IgG1, kappa, L234A L235A)
heavy 1: not shown
light 1: DIVMTQTPLSLPVTPGEPASISCRSSQSLVHSTGNTYLEWYLQKPGQSPQLLIYKVSNRFSGVPDRFSGSGSGTDFTLKISRVEAEDVGVYYCFQGSHVPYTFGGGTKVEIKRTVAAPSVFIFPPSDEQLKSGTASVVCLLNNFYPREAKVQWKVDNALQSGNSQESVTEQDSKDSTYSLSSTLTLSKADYEKHKVYACEVTHQGLSSPVTKSFNRGEC
heavy 2: not shown
light 2: not shown
notes: 1+1 asymmetric knob-into-hole bispecific IgG1; knob on the PD-1 arm, hole on the CTLA-4 arm; tested after polishing purification; also called PD-1×CTLA-4 bispecific antibody (F126C-S121C placed into the CTLA-4 arm)
B2: TJ030-PR1108 (bispecific antibody, human IgG1, kappa, L234A L235A)
heavy 1: not shown
light 1: B1 light 1 with T169C, C219A
heavy 2: not shown
light 2: not shown
notes: 1+1 asymmetric knob-into-hole bispecific IgG1; knob on the PD-1 arm, hole on the CTLA-4 arm; tested after polishing purification; also called PD-1×CTLA-4 bispecific antibody (F170C-T164C placed into the PD-1 arm)
B3: TJ030-PR1106 (bispecific antibody, human IgG1, kappa, L234A L235A)
heavy 1: not shown
light 1: B1 light 1 with S126C, C219A
heavy 2: not shown
light 2: not shown
notes: 1+1 asymmetric knob-into-hole bispecific IgG1; knob on the PD-1 arm, hole on the CTLA-4 arm; tested after polishing purification; also called PD-1×CTLA-4 bispecific antibody (F126C-S121C placed into the PD-1 arm)
B4: TJ030-PR1104 (bispecific antibody, human IgG1, kappa, L234A L235A)
heavy 1: not shown
light 1: B1 light 1
heavy 2: not shown
light 2: not shown
notes: 1+1 asymmetric knob-into-hole bispecific IgG1; knob on the PD-1 arm, hole on the CTLA-4 arm; tested after polishing purification; also called PD-1×CTLA-4 bispecific antibody (F170C-T164C placed into the CTLA-4 arm)
B5: ERP2006-BS0015 (bispecific antibody)
heavy: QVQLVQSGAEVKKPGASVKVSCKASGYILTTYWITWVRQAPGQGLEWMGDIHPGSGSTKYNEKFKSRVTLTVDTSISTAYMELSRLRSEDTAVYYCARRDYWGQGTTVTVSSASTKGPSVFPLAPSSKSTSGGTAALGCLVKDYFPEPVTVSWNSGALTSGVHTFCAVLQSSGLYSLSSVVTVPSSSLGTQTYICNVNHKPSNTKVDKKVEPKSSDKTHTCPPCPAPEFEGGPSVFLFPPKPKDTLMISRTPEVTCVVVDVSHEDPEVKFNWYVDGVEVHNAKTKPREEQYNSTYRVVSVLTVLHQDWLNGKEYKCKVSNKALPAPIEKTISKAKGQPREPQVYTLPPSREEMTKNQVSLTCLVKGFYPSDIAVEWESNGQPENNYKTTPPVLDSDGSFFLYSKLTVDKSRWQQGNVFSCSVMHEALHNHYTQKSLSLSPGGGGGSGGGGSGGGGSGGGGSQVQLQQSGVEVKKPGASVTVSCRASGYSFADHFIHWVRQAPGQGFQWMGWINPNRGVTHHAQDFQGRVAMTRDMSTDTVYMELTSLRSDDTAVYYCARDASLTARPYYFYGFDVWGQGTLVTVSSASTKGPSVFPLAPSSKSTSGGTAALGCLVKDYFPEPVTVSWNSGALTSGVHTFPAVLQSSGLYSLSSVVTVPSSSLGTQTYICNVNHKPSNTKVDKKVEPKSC
light 1: DIVMTQSPLSLPVTPGEPASISCRSSQNIVNSQGNTYLEWYLQKPGQSPQLLIYKVTNRFSGVPDRFSGSGSGTDFTLKISRVEAEDVGVYYCFQASLVPWTFGGGTKVEIKGQPKAAPSVTLFPPSSEELQANKATLVCLISDFYPGAVTVAWKADSSPVKAGVETTTPCKQSNNKYAASSYLSLTPEQWKSHRSYSCQVTHEGSTVEKTVAPTESS
light 2: DIQMTQSPSSVSASVGDRVTITCRASQGISSWLAWYQQKPGKAPKLLIYAASSLQSGVPSRFSGSGSGTDFTLTISSLQPEDFATYYCQQANSFPPAFGQGTKVEIKRTVAAPSVFIFPPSDEQLKSGTASVVCLLNNFYPREAKVQWKVDNALQSGNSQESVTEQDSKDSTYSLSSTLTLSKADYEKHKVYACEVTHQGLSSPVTKSFNRGEC
notes: 2+2 symmetric bispecific: [CD40 VH-CH1]-Fc-linker-[FAP VH-CH1] heavy chain with two kinds of light chain; also called FAP×CD40 bispecific antibody
B6: ERP2006-BS0012 (bispecific antibody, human IgG1, kappa, lambda)
heavy: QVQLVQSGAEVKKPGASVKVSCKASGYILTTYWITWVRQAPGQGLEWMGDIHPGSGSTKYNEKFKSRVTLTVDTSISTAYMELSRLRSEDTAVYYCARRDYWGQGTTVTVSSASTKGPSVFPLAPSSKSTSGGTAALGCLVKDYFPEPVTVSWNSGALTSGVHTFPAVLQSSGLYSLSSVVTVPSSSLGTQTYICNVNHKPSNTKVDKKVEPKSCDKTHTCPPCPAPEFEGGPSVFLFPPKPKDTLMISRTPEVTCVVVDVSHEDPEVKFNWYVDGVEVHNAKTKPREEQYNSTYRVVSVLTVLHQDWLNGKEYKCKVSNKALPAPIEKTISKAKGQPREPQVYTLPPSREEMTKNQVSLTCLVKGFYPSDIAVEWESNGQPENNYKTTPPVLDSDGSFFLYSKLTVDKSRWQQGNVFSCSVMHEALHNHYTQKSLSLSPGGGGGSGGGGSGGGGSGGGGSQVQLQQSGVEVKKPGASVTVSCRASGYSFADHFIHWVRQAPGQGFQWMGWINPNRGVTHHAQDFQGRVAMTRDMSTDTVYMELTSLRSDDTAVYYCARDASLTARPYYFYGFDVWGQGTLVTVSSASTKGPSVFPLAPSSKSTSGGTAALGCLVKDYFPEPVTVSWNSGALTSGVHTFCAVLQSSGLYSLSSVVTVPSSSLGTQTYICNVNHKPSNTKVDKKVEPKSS
light 1: B1 light 1 with T7S, S28N, L29I, H31N, T33Q, S57T, G96A, H98L, Y101W
light 2: DIQMTQSPSSVSASVGDRVTITCRASQGISSWLAWYQQKPGKAPKLLIYAASSLQSGVPSRFSGSGSGTDFTLTISSLQPEDFATYYCQQANSFPPAFGQGTKVEIKGQPKAAPSVTLFPPSSEELQANKATLVCLISDFYPGAVTVAWKADSSPVKAGVETTTPCKQSNNKYAASSYLSLTPEQWKSHRSYSCQVTHEGSTVEKTVAPTESS
notes: as for B5
B7: parent FAP monoclonal antibody Ab10 (antibody, V domains shown)
VH: QVQLQQSGVEVKKPGASVTVSCRASGYSFADHFIHWVRQAPGQGFQWMGWINPNRGVTHHAQDFQGRVAMTRDMSTDTVYMELTSLRSDDTAVYYCARDASLTARPYYFYGFDVWGQGTLVTVSS
VL: DIQMTQSPSSVSASVGDRVTITCRASQGISSWLAWYQQKPGKAPKLLIYAASSLQSGVPSRFSGSGSGTDFTLTISSLQPEDFATYYCQQANSFPPAFGQGTKVEIK
notes: also called AblO

The binders below were run against T2, human PD-1 (human, UniProt Q15116 25-288) (assay: flow cytometry cell cross-linking (CHO-K1/PD-1 + HEK293/CTLA-4 cells), antibody at 0.03 nM).
T2 construct: whole, on cells; also called CHO-K1/PD-1
Protocol: (§1) The ability of PD-1×CTLA-4 bispecific antibodies to co-bind to cells highly expressing human PD-1 and human CTLA-4 after polishing purification was determined by flow cytometry. First, HEK293 cells were transiently transfected with human CTLA-4 plasmids, and 24 h after the transfection, the HEK293 cells highly expressing CTLA-4 were labeled with Cell Trace Far red (Invitrogen, C34564), and the CHO-K1/PD-1 stably transfected strain was labeled with Cell Trace Violet (Invitrogen, C34557). […] The plate was incubated at 4° C. in a dark place for 1 h. The double-positive cell percentage of HEK293/CTLA-4 of CTLA-4 and CHO-K1/PD-1 was determined by flow cytometry.
(§2) According to Example 1.4, the ability of each of the PD-1×CTLA-4 bispecific antibodies TJ030-PR1102 (F126C-S121C was placed into the CTLA-4 arm), TJ030-PR1104 (F170C-T164C was placed into the CTLA-4 arm), TJ030-PR1106 (F126C-S121C was placed into the PD-1 arm) and TJ030-PR1108 (F170C-T164C was placed into the PD-1 arm) to co-bind to cells highly expressing human PD-1 and human CTLA-4 after polishing purification was determined by flow cytometry, with CTLA-4 monoclonal antibody and IgG as negative controls. […] Such cross-linking of cells occurred in bispecific antibody molecule incubation only rather than monoclonal antibody or IgG1 incubation.

T2 sequence (Q15116 25-288): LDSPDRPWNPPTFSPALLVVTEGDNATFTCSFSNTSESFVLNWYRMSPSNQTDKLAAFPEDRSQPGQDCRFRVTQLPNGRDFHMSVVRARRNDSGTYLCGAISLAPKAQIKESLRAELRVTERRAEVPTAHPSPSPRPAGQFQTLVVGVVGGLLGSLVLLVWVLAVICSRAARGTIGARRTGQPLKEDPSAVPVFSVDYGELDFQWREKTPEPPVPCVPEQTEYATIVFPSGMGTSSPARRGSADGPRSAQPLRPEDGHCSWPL

| proportion of double-positive cells [%] | Binder |
| --- | --- |
| 8.87 | B1 |
| 11.8 | B2 |
| 10.9 | B3 |
| 10.4 | B4 |

The binders below were run against T1, human FAP (assay: FACS binding to CHO/FAP cells).
Protocol: (§3) CHO cells stably expressing human FAP (i.e., CHO/FAP cells) and HEK293 cells 48 hours after transient transfection (i.e., HEK293/CD40 cells) in the logarithmic growth phase were collected by centrifugation, washed with PBS and then centrifuged. The cells were plated at 2E5 cells/100 μL/well and centrifuged at 400 g for 5 min Different concentrations of test antibody were added. The cells were incubated on ice for 1 h, washed with PBS and centrifuged at 400 g for 5 min The goat anti-human secondary antibody Alexa Fluor 488 with a fluorophore was added, and the cells were stained in an ice bath for 1 h, washed twice with PBS and then assayed on a flow cytometer.
(§4) The bispecific antibodies ERP2006-BS0012 and ERP2006-BS0015 have similar affinity for FAP to the parent FAP monoclonal antibody AblO and similar affinity for CD40 to the parent CD40 monoclonal antibody 9E5-25.

| EC50 [nM] | binding result | Binder |
| --- | --- | --- |
| 0.336 | – | B5 |
| 0.349 | – | B6 |
| – | binds | B7 |

Each binder was assayed against T2, human PD-1 (assay: flow cytometry cell cross-linking (CHO-K1/PD-1 + HEK293/CTLA-4 cells), antibody at 100 nM).
Protocol: (§5) The ability of PD-1×CTLA-4 bispecific antibodies to co-bind to cells highly expressing human PD-1 and human CTLA-4 after polishing purification was determined by flow cytometry. First, HEK293 cells were transiently transfected with human CTLA-4 plasmids, and 24 h after the transfection, the HEK293 cells highly expressing CTLA-4 were labeled with Cell Trace Far red (Invitrogen, C34564), and the CHO-K1/PD-1 stably transfected strain was labeled with Cell Trace Violet (Invitrogen, C34557). The cells were added to a 96-well U-bottom plate (Costar, 3599) at 2E5 cells/well, and the test antibody was diluted to 100 nM, 10 nM, 1 nM, 0.1 nM and 0.01 nM and added to the 96-well U-bottom plate at 50 μL/well, making a total volume of 150 μL/well. The plate was incubated at 4° C. in a dark place for 1 h. The double-positive cell percentage of HEK293/CTLA-4 of CTLA-4 and CHO-K1/PD-1 was determined by flow cytometry.
as §2

| proportion of double-positive cells [%] | Binder |
| --- | --- |
| 22.2 | B1 |
| 27.2 | B2 |
| 23.9 | B3 |
| 25.4 | B4 |

The binders below were run against T2, human PD-1 (assay: flow cytometry cell cross-linking (CHO-K1/PD-1 + HEK293/CTLA-4 cells), antibody at 0.3 nM).
Protocol: as §1, §2

| proportion of double-positive cells [%] | Binder |
| --- | --- |
| 20.7 | B1 |
| 24.2 | B2 |
| 26.3 | B3 |
| 25.3 | B4 |

The binders below were run against T3, human CD40 (human, UniProt P25942 21-277) (assay: FACS binding to HEK293/CD40 cells).
T3 construct: whole, on cells; also called HEK293/CD40; HEK-Blue CD40L cell
Protocol: as §3, §4

T3 sequence (P25942 21-277): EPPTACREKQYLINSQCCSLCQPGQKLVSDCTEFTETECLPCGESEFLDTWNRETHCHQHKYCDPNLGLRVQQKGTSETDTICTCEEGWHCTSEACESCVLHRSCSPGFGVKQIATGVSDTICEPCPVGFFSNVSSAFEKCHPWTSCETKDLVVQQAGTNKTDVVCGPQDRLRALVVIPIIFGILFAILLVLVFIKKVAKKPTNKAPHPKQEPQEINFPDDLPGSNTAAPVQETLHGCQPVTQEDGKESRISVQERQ

| EC50 [nM] | Binder |
| --- | --- |
| 0.456 | B5 |
| 0.471 | B6 |

These binders were tested against T2, human PD-1 (assay: flow cytometry cell cross-linking (CHO-K1/PD-1 + HEK293/CTLA-4 cells), antibody at 30 nM).
Protocol: as §5, §2

| proportion of double-positive cells [%] | Binder |
| --- | --- |
| 26.7 | B1 |
| 31.4 | B2 |
| 33.1 | B3 |
| 32.1 | B4 |

The binders below were run against T2, human PD-1 (assay: flow cytometry cell cross-linking (CHO-K1/PD-1 + HEK293/CTLA-4 cells), antibody at 10 nM).
Protocol: as §5, §2

| proportion of double-positive cells [%] | Binder |
| --- | --- |
| 32.4 | B1 |
| 37.7 | B2 |
| 38.1 | B3 |
| 34.8 | B4 |

What follows are binders tested against T2, human PD-1 (assay: flow cytometry cell cross-linking (CHO-K1/PD-1 + HEK293/CTLA-4 cells), antibody at 1 nM).
Protocol: as §5, §2

| proportion of double-positive cells [%] | Binder |
| --- | --- |
| 25.1 | B1 |
| 33.2 | B2 |
| 34.7 | B3 |
| 30.5 | B4 |

Each binder was assayed against T2, human PD-1 (assay: flow cytometry cell cross-linking (CHO-K1/PD-1 + HEK293/CTLA-4 cells), antibody at 3 nM).
Protocol: as §5, §2

| proportion of double-positive cells [%] | Binder |
| --- | --- |
| 32.2 | B1 |
| 35.3 | B2 |
| 37.4 | B3 |
| 35.8 | B4 |

These binders were tested against T2, human PD-1 (assay: flow cytometry cell cross-linking (CHO-K1/PD-1 + HEK293/CTLA-4 cells), antibody at 0.1 nM).
Protocol: as §5, §2

| proportion of double-positive cells [%] | Binder |
| --- | --- |
| 11.8 | B1 |
| 17 | B2 |
| 19.1 | B3 |
| 18.2 | B4 |
